Legend:
[1] = Oral gavage of engineered E. coli Nissle in mice, metabolites and body weight; type: in vivo, mice (NMRI); details: carbidopa 10 mg/kg IP every 24 h
Protocol: Female mice (NMRI, supplied by Taconic Biosciences, 6 weeks of age) were group-housed on a 12-h light:dark cycle at constant temperature with ad libitum access to food and water in a Specific Pathogen Free (SPF) facility. Upon delivery, mice were given 5 days to adjust to new location. Cohort size was 8 animals, and 4 different cohorts were tested, see below. All animals received Streptomycin (5 g/L) in the drinking water to ensure colonization, 3 days before being gavaged and throughout the experiment. A single oral gavage of 10^8 cells was administered of either L-DOPA-producing (called ‘EcN_DOPA’) or a control E. coli Nissle (‘EcN_CTRL’) strain without expression of the tyrosine hydroxylase gene. Samples were taken for the following 7 days, after which animals were euthanized and final blood samples and gut content samples were collected. […] Fresh fecal samples were collected daily for 7 days to quantify colonization and metabolite levels. […]
In vivo sample analysis: Plasma, tissue samples, gut content and fecal samples were analyzed for DOPA-derived and related serotonin metabolites using LC-MS. […] Gut and brain tissue was also frozen for real-time quantitative PCR (RT-qPCR) and metabolite analysis. Quantification of metabolites from in vivo samples was performed as described above (‘LC-MS analysis’).

E. faecalis = test: Bacteriocin assay (halos on BHI agar); type: cell-based; details: overnight 37 C, FIG. 6C
Protocol: Three colonies of each E. coli Nissle strain were inoculated in 5 ml of BHI broth and grown overnight at 37° C. in a shaking incubator. The following day, 1 ml of the culture was washed with PBS buffer once and 10 μl were used to spot the strains on top of a BHI agar plate. After drying, top BHI agar was mixed with 500 μl of previously grown E. faecalis, and was placed on top of the BHI agar containing the dried spots of the E. coli strains. Plates were dried for 10 minutes and then incubated at 37° C. overnight.

Molecule: C[C@@](Cc1ccc(O)c(O)c1)(NN)C(=O)O [carbidopa]
- Plasma serotonin levels ([1]; EcN_DOPA p=0.08): reduced
- Serotonin (5-HT) concentrations in urine ([1]; single oral gavage 10^8 cells, EcN_DOPA vs control strain p=0.06): decreased below detection level

B1: Hiracin JM79: bacteriocin (SEQ ID NO. 27) co-expressed by L-DOPA producing E. coli Nissle (protein)
chain: MKKTAIAIAVALAGFATVAQAATYYGNGLYCNKEKCWVDWNQAKGEIGKIIVNGWVNHGPWAPRR
modifications: Hiracin JM79
- inhibition of E. faecalis around EcN spots (E. faecalis): halos of inhibition

B2: ubericin A: bacteriocin (SEQ ID NO. 29) co-expressed by L-DOPA producing E. coli Nissle (protein)
chain: MKKTAIAIAVALAGFATVAQAKTVNYGNGLYCNQKKCWVNWSETATTIVNNSIMNGLTGGNAGWHSGGRA
modifications: Ubericin A
- inhibition of E. faecalis around EcN spots (E. faecalis): halos of inhibition

B3: Enterocin A: bacteriocin (SEQ ID NO. 31) co-expressed by L-DOPA producing E. coli Nissle, pMUT-DOPA_5-EntA (protein)
chain: MKKTAIAIAVALAGFATVAQATTHSGKYYGNGVYCTKNKCTVDWAKATTCIAGMSIGGFLGGAIPGKC
modifications: Enterocin A
- inhibition of E. faecalis around EcN spots (E. faecalis): halos of inhibition
